The test system of this series is Saccharomyces cerevisiae. In words: protein stability index of tFT-peptide fusion (C-terminal peptide) (PSI (0-1 scale)); higher = more stable (slower turnover). The note with it: temperature: 30 C. The procedure:
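MPS profiling in S. cerevisiae of the yeast C-terminome library: the last 12 aa of each annotated ORF are fused to the C-terminus of a sfGFP-mCherry timer, after a GGGS linker. Cells are FACS-sorted into 8 mCherry/sfGFP bins and deep-sequenced. PSI runs from 0 (unstable) to 1 (stable); wild type and das1Δ backgrounds, two technical replicates each.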

Setting [1] is: genetic background: das1 deletion.

This note sets out measurements from the supplement of paper PMC10724198.

± gives the standard deviation of the averaged measurements.

AWAKKLKSMRRS [TAM41 C-terminal 12 aa] yielded a protein stability index under setting [1] of 0.709 ± 0.013 and a protein stability index (genetic background: wild type) of 0.634 ± 0.021.

Turning to AWIADLDHTVQP [CHS6 C-terminal 12 aa], the protein stability index reads like this: under setting [1], 0.718 ± 0.017; (genetic background: wild type) 0.708 ± 0.011.

For the sequence AYECAKHFLMKN [MRS4 C-terminal 12 aa], the protein stability index is, setting by setting: under setting [1], 0.7061 ± 0.0038; (genetic background: wild type) 0.5284 ± 0.0001.

For the sequence AYETLTGSKWSH [ADE1 C-terminal 12 aa], the protein stability index reads like this: under setting [1], 0.704 ± 0.01; (genetic background: wild type) 0.704 ± 0.015.

Consider CADCGTILNNFR [DGR2 C-terminal 12 aa], for which the protein stability index was 0.731 ± 0.017 under setting [1] and 0.748 ± 0.045 (genetic background: wild type).

On to CCCFLLELVCDN [YDR210W C-terminal 12 aa], for which the protein stability index reads like this: under setting [1], 0.512 ± 0.013; (genetic background: wild type) 0.523 ± 0.018.

As for CDVKSSIIVGIL [YLR358C C-terminal 12 aa], the protein stability index reads like this: under setting [1], 0.638 ± 0.02; (genetic background: wild type) 0.655 ± 0.059.

For the sequence “CIEIARHFVLKE [YEL009C-A C-terminal 12 aa]”, the protein stability index stood at 0.73 ± 0.014 under setting [1] and 0.708 ± 0.027 (genetic background: wild type).

For the sequence CKQNSNCEYLYM [YOR365C C-terminal 12 aa], the protein stability index stood at 0.682 ± 0.012 under setting [1] and 0.699 ± 0.012 (genetic background: wild type).

For the sequence CLRTVLKSDEIK [SFA1 C-terminal 12 aa], the protein stability index is, setting by setting: under setting [1], 0.647 ± 0.025; (genetic background: wild type) 0.663 ± 0.021.

In the case of “CLSGIGLFPVSS [YHL030W-A C-terminal 12 aa]”, the protein stability index stood at 0.6846 ± 0.0057 under setting [1] and 0.69 ± 0.021 (genetic background: wild type).

Turning to CSTERPKRARCD [YOR342C C-terminal 12 aa], the protein stability index is 0.708 ± 0.0099 under setting [1] and 0.695 ± 0.029 (genetic background: wild type).

As to DALDIANRIGYI [RPL25 C-terminal 12 aa], the protein stability index by setting is: under setting [1], 0.668 ± 0.027; (genetic background: wild type) 0.683 ± 0.012.

On to DDDDDGPYADDS [GSY2 C-terminal 12 aa], for which the protein stability index turned out to be 0.707 ± 0.0079 under setting [1] and 0.706 ± 0.019 (genetic background: wild type).

Sequence DDDEFDEDEFED [PAH1 C-terminal 12 aa] showed a protein stability index under setting [1] of 0.695 ± 0.03 and a protein stability index (genetic background: wild type) of 0.7188 ± 0.0021.

On to DDKPKIPTMLNA [YME1 C-terminal 12 aa], for which the protein stability index stood at 0.7003 ± 0.0065 under setting [1] and 0.671 ± 0.046 (genetic background: wild type).

With DDPDENTALLGA [YDR338C C-terminal 12 aa], the protein stability index runs as follows: under setting [1], 0.7076 ± 0.0037; (genetic background: wild type) 0.711 ± 0.034.

With DDSSSTDTEERE [SSK2 C-terminal 12 aa], the protein stability index runs as follows: under setting [1], 0.675 ± 0.028; (genetic background: wild type) 0.683 ± 0.029.

Regarding DEDEFENQRQQF [YIL055C C-terminal 12 aa], the protein stability index was 0.71 ± 0.0099 under setting [1] and 0.709 ± 0.076 (genetic background: wild type).

Turning to DEEKQLSLSDMI [YOR186W C-terminal 12 aa], the protein stability index was found to be 0.692 ± 0.03 under setting [1] and 0.672 ± 0.019 (genetic background: wild type).

Consider DEFCSQRSYTRF [MIN7 C-terminal 12 aa], for which the protein stability index by setting is: under setting [1], 0.716 ± 0.042; (genetic background: wild type) 0.701 ± 0.032.

For DEQGNELSPRNY [MID2 C-terminal 12 aa], the protein stability index under setting [1] worked out at 0.69199 ± 0.00026 and the protein stability index (genetic background: wild type) was determined as 0.723 ± 0.035.

Consider DFFDYDLLFQND [PIP2 C-terminal 12 aa], for which the protein stability index runs as follows: under setting [1], 0.767 ± 0.021; (genetic background: wild type) 0.788 ± 0.034.

In turn, DFSKFKDSRLYD [YND1 C-terminal 12 aa] displayed a protein stability index under setting [1] of 0.688 ± 0.034 and a protein stability index (genetic background: wild type) of 0.671 ± 0.01.

Regarding DGGLAGPVTVRD [FMP45 C-terminal 12 aa], the protein stability index by setting is: under setting [1], 0.6903 ± 0.005; (genetic background: wild type) 0.713 ± 0.048.

As to DGSADLGGWETM [UBR2 C-terminal 12 aa], the protein stability index under setting [1] was 0.732 ± 0.026 and the protein stability index (genetic background: wild type) came out at 0.733 ± 0.048.

DIIKSIGDSYSI [NSE3 C-terminal 12 aa]: the protein stability index by setting is: under setting [1], 0.69 ± 0.03; (genetic background: wild type) 0.734 ± 0.076.

Regarding DIYEIRGTALDD [DSL1 C-terminal 12 aa], the protein stability index by setting is: under setting [1], 0.6986 ± 0.0054; (genetic background: wild type) 0.699 ± 0.052.

With “DKKVNNNIILFL [YAL037C-A C-terminal 12 aa]”, the protein stability index runs as follows: under setting [1], 0.692 ± 0.042; (genetic background: wild type) 0.704 ± 0.011.

On to DLEGVLWRSYYA [BLM10 C-terminal 12 aa], for which the protein stability index is, setting by setting: under setting [1], 0.744 ± 0.008; (genetic background: wild type) 0.711 ± 0.0089.

Regarding DLIESTFRSITQ [PAN3 C-terminal 12 aa], the protein stability index under setting [1] was 0.7194 ± 0.0067 and the protein stability index (genetic background: wild type) is 0.7049 ± 0.0029.

As to DLLDKDVLLISE [CDC7 C-terminal 12 aa], the protein stability index is 0.706 ± 0.0095 under setting [1] and 0.6734 ± 0.0014 (genetic background: wild type).

For the sequence DLSLVFGNHEST [HEM15 C-terminal 12 aa], the protein stability index was found to be 0.694 ± 0.038 under setting [1] and 0.727 ± 0.02 (genetic background: wild type).

On to DNEGSRKMLKIE [CIN8 C-terminal 12 aa], for which the protein stability index was 0.6613 ± 0.0033 under setting [1] and 0.662 ± 0.042 (genetic background: wild type).

With DNKPKLSDVEKD [GEA2 C-terminal 12 aa], the protein stability index amounted to 0.698 ± 0.019 under setting [1] and 0.707 ± 0.017 (genetic background: wild type).

As to DNQPWQLARCGR [HRT1 C-terminal 12 aa], the protein stability index under setting [1] came to 0.698 ± 0.015 and the protein stability index (genetic background: wild type) was found to be 0.718 ± 0.014.

DPEPPKEDPHDH [TCP1 C-terminal 12 aa]: the protein stability index runs as follows: under setting [1], 0.706 ± 0.0085; (genetic background: wild type) 0.704 ± 0.051.

For the sequence DQAAKTFVIKKD [MDM38 C-terminal 12 aa], the protein stability index is, setting by setting: under setting [1], 0.703 ± 0.019; (genetic background: wild type) 0.668 ± 0.028.

Take DQFQKVEKSIVK [RRF1 C-terminal 12 aa]: the protein stability index under setting [1] was found to be 0.69 ± 0.02 and the protein stability index (genetic background: wild type) came to 0.675 ± 0.061.

For DQLEDTSSHDEL [MPD2 C-terminal 12 aa], the protein stability index is, setting by setting: under setting [1], 0.7476 ± 0.0003; (genetic background: wild type) 0.7 ± 0.025.

For DSDADIEELLEE [PGA2 C-terminal 12 aa], the protein stability index runs as follows: under setting [1], 0.696 ± 0.015; (genetic background: wild type) 0.689 ± 0.046.

Regarding DSEDDEDESDDE [SUI2 C-terminal 12 aa], the protein stability index is, setting by setting: under setting [1], 0.689 ± 0.036; (genetic background: wild type) 0.717 ± 0.094.

DSFIPLQPKKKI [YML037C C-terminal 12 aa] showed a protein stability index under setting [1] of 0.684 ± 0.05 and a protein stability index (genetic background: wild type) of 0.684 ± 0.015.

In the case of DSVEMKFDKLNI [RBS1 C-terminal 12 aa], the protein stability index runs as follows: under setting [1], 0.6821 ± 0.0029; (genetic background: wild type) 0.748 ± 0.085.

DTDGAKISIINN [FKH2 C-terminal 12 aa] gave a protein stability index under setting [1] of 0.7019 ± 0.0064 and a protein stability index (genetic background: wild type) of 0.7033 ± 0.002.

For DVEDVLIDTLCN [PEX22 C-terminal 12 aa], the protein stability index by setting is: under setting [1], 0.723 ± 0.019; (genetic background: wild type) 0.678 ± 0.03.

Take DVEIDEDEEYFY [SPO12 C-terminal 12 aa]: the protein stability index reads like this: under setting [1], 0.707 ± 0.0084; (genetic background: wild type) 0.71 ± 0.01.

Regarding DVYVLFYERVYD [UBP7 C-terminal 12 aa], the protein stability index under setting [1] is 0.682 ± 0.036 and the protein stability index (genetic background: wild type) is 0.682 ± 0.03.

With DWLIDVIKEEQL [ARL1 C-terminal 12 aa], the protein stability index runs as follows: under setting [1], 0.728 ± 0.051; (genetic background: wild type) 0.695 ± 0.028.

As to EADFRKRFPSKV [PRK1 C-terminal 12 aa], the protein stability index is, setting by setting: under setting [1], 0.694 ± 0.0081; (genetic background: wild type) 0.669 ± 0.021.

In turn, EAGDSDILTTLA [RPL30 C-terminal 12 aa] gave a protein stability index under setting [1] of 0.706 ± 0.024 and a protein stability index (genetic background: wild type) of 0.687 ± 0.0078.

With “EAQLSSNDEPLP [YCR102W-A C-terminal 12 aa]”, the protein stability index stood at 0.6904 ± 0.004 under setting [1] and 0.721 ± 0.089 (genetic background: wild type).

On to ECPSVPPTVRAY [SDH1 C-terminal 12 aa], for which the protein stability index by setting is: under setting [1], 0.528 ± 0.011; (genetic background: wild type) 0.55 ± 0.0063.

For EDGDNWEVVGKK [TIF3 C-terminal 12 aa], the protein stability index runs as follows: under setting [1], 0.7056 ± 0.0056; (genetic background: wild type) 0.727 ± 0.012.

For the sequence EDHKVDGNKKED [VMA21 C-terminal 12 aa], the protein stability index reads like this: under setting [1], 0.68 ± 0.017; (genetic background: wild type) 0.707 ± 0.011.

For the sequence EDIKQALKQATN [CYS3 C-terminal 12 aa], the protein stability index by setting is: under setting [1], 0.6902 ± 0.0052; (genetic background: wild type) 0.654 ± 0.023.

For the sequence EEAREEFENIAL [SMI1 C-terminal 12 aa], the protein stability index was determined as 0.679 ± 0.0096 under setting [1] and 0.645 ± 0.017 (genetic background: wild type).

Consider EEARQEKSGQES [CRZ1 C-terminal 12 aa], for which the protein stability index is, setting by setting: under setting [1], 0.678 ± 0.048; (genetic background: wild type) 0.659 ± 0.011.

Regarding EECVKVQWESRT [TSR4 C-terminal 12 aa], the protein stability index worked out at 0.681 ± 0.051 under setting [1] and 0.69407 ± 0.00052 (genetic background: wild type).

For EEIRRENFRVIE [KTR7 C-terminal 12 aa], the protein stability index runs as follows: under setting [1], 0.713 ± 0.012; (genetic background: wild type) 0.677 ± 0.029.

Consider EELQGNARALNN [SNN1 C-terminal 12 aa], for which the protein stability index runs as follows: under setting [1], 0.6962 ± 0.0046; (genetic background: wild type) 0.69 ± 0.019.

In turn, EGEYADNVEPLA [PRY1 C-terminal 12 aa] registered a protein stability index under setting [1] of 0.7124 ± 0.0048 and a protein stability index (genetic background: wild type) of 0.685 ± 0.02.

Sequence EHIGAQNTGDGR [YER187W C-terminal 12 aa] returned a protein stability index under setting [1] of 0.6894 ± 0.0014 and a protein stability index (genetic background: wild type) of 0.679 ± 0.033.

As for EHTILSDSDETH [RIM15 C-terminal 12 aa], the protein stability index turned out to be 0.71 ± 0.012 under setting [1] and 0.717 ± 0.022 (genetic background: wild type).

In the case of EIAADDTKKQEK [SOK2 C-terminal 12 aa], the protein stability index under setting [1] stood at 0.672 ± 0.027 and the protein stability index (genetic background: wild type) turned out to be 0.684 ± 0.074.

With EIIDNWEKYEQS [FAS1 C-terminal 12 aa], the protein stability index amounted to 0.706 ± 0.011 under setting [1] and 0.7 ± 0.04 (genetic background: wild type).

Regarding EIKHVFTGVYGG [ASP1 C-terminal 12 aa], the protein stability index is, setting by setting: under setting [1], 0.68 ± 0.006; (genetic background: wild type) 0.686 ± 0.0042.
